Holding throughout (experiment): cell-based or functional assay
Assay [1] addresses HIV-1 JR-CSF Env K421A (HIV-1 (isolate JR-CSF)) (UniProt P20871).
Assay [2] concerns the target HIV-1 Env of isolate MGRM-AE-007 (pseudovirus) (HIV-1).
The target in assay [3] is HIV-1 envelope glycoprotein (Env) of isolate MGRM-Chronic-B-001, on pseudovirus (HIV-1).
Assay [4] addresses HIV-1 envelope glycoprotein (Env) of isolate MG RM-A-014, subtype A (HIV-1).
For assay [5], the target named is HIV-1 Env of isolate MGRM-AG-002 (pseudovirus) (HIV-1).
The target in assay [6] is HIV-1 envelope glycoprotein (Env) of isolate TRJO4551.58, on pseudovirus (HIV-1).
The target of assay [7] is HIV-1 JR-CSF Env P313A (HIV-1 (isolate JR-CSF, clade B)) (UniProt P20871).
Assay [8] concerns the target HIV-1 envelope glycoprotein (Env) of isolate QH0692.42, on pseudovirus (HIV-1).
Assay [9] has as its target HIV-1 93IN905 Env (HIV-1).
The target in assay [10] is HIV-1 94UG103 Env (HIV-1).
Assay [11] deals with HIV-1 Env of pseudovirus isolate 93TH305 (clade B) (HIV-1).
In assay [12] the target is HIV-1 Env of isolate MGRM-G-024 (subtype G) (HIV-1).
Assay [13] addresses HIV-1 envelope glycoprotein (Env) of isolate MG RM-AG-006 (HIV-1).
The target of assay [14] is aMLV envelope (negative control pseudovirus) (aMLV).
Assay [15] has as its target HIV-1 Env of isolate 92UG001 (HIV-1).
Assay [16] deals with HIV-1 Env of isolate MG RM-A-010 (pseudovirus) (HIV-1).
The target of assay [17] is HIV-1 envelope glycoprotein (Env) of isolate MGRM-AE-008 (HIV-1).
The target in assay [18] is HIV-1 Env of isolate MGRM-G-004 (subtype G) (HIV-1).
The target of assay [19] is HIV-1 Env of isolate MG RM-A-006 (pseudovirus) (HIV-1).
In assay [20] the target is HIV-1 Env of isolate MGRM-AE-005 (subtype AE) (HIV-1).
Assay [21] addresses HIV-1 Env of isolate MGRM-AG-012 (subtype AG) (HIV-1).
The target of assay [22] is HIV-1 Env of isolate MGRM-A-009 (subtype A) (HIV-1).
Assay [23] addresses HIV-1 Env of isolate MGRM-A-002 (pseudovirus) (HIV-1).
Assay [24] has as its target HIV-1 Env of isolate MGRM-Chronic-B-008 (HIV-1).
The target in assay [25] is HIV-1 Env of isolate MGRM-Chronic-B-003 (HIV-1).
Assay [26] concerns the target HIV-1 Env of isolate MGRM-F1-023 (HIV-1).
In assay [27] the target is HIV-1 Env of isolate MGRM-AG-003 (subtype AG) (HIV-1).
The target of assay [28] is HIV-1 Env of isolate MGRM-D-004 (pseudovirus) (HIV-1).
Assay [29] concerns the target HIV-1 Env of isolate 98CN006 (pseudovirus) (HIV-1).
For assay [30], the target named is HIV-1 Env of isolate VLGCA1 (subtype A) (HIV-1).
Assay [31] concerns the target HIV-1 Env of isolate MGRM-AE-003 (subtype AE) (HIV-1).
The target of assay [32] is HIV-1 Env of isolate 94KE105 (subtype AC) (HIV-1).
The target in assay [33] is HIV-1 Env of isolate MGRM-F1-022 (HIV-1).
In assay [34] the target is HIV-1 Env of pseudovirus isolate MGRM-C-022 (clade C) (HIV-1).

With 4858_P08 (PGT-123) (antibody), the Fold IC50 increase relative to wild-type (pseudovirus neutralization) in [1] came out at 0.9 fold. Also, the IC50 (µg/mL), pseudovirus neutralization in [2] and in assay [5] was above 50 µg/mL throughout. The IC50, pseudovirus neutralization in [3] turned out to be 0.15 µg/mL; in assay [4] it was 0.003 µg/mL; in assay [6], 16.9 µg/mL; in assay [8], 0.158 µg/mL; in [9], 0.0071 µg/mL; in assay [10] it was 0.846 µg/mL. The substance also yielded a Fold IC50 increase relative to wild-type in assay [7] of 0.2 fold.

5145_B14 (PGT-127) (antibody) gave a Fold IC50 increase relative to wild-type (pseudovirus neutralization) in assay [1] of 1.5 fold. In addition, the IC50 (µg/mL), pseudovirus neutralization in assay [2] and in assay [5] was above 50 µg/mL each time. For the same substance, the IC50, pseudovirus neutralization in [3] was above 50 µg/mL; in assay [4], 0.04 µg/mL; in assay [6] it was 0.063 µg/mL; in [8], 0.129 µg/mL. Besides, the Fold IC50 increase relative to wild-type in assay [7] came to 1.3 fold.

In [11], VRC01 (antibody) came in with an IC50, pseudovirus neutralization of 0.243 µg/mL. Besides, the IC50 (µg/mL), pseudovirus neutralization is 0.025 µg/mL in assay [12], above 50 µg/mL in assay [14], 1.16 µg/mL in assay [15] and above 50 µg/mL in [18]. The IC50 – broadly, the point on the concentration scale where inhibition reaches its midpoint – in assay [13] was determined as 0.344 µg/mL; in assay [17] it was 1.72 µg/mL. Further, the IC50 (µg/mL), single-round pseudovirus neutralization amounted to 0.325 µg/mL in [16] and 0.521 µg/mL in [19].

On to 5114_A19 (PGT-128) (antibody), for which the IC50, pseudovirus neutralization in [20] is 0.032 µg/mL; in [21], above 50 µg/mL; in assay [22], 0.005 µg/mL; in assay [27], 34.8 µg/mL; in assay [30], 0.838 µg/mL; in assay [31], 0.18 µg/mL. Further, the IC50, pseudovirus neutralization in assay [32] worked out at 0.007 µg/mL; in [34], 0.042 µg/mL. Moreover, the Fold IC50 increase relative to wild-type (pseudovirus neutralization) in [1] is 2 fold. Besides, the IC50 (µg/mL), pseudovirus neutralization stood at 0.149 µg/mL in assay [23]; 0.143 µg/mL in [24]; 0.007 µg/mL in [25]; 0.007 µg/mL in assay [26]; 24.9 µg/mL in assay [28]; 0.015 µg/mL in [29]. In assay [33], this substance gave an IC50 (µg/mL), pseudovirus neutralization of 4.54 µg/mL.

4970_K22 (PGT-144) (antibody) showed an IC50, pseudovirus neutralization in assay [11] above 50 µg/mL. In addition, the IC50 (µg/mL), pseudovirus neutralization in assay [12] is 7.92 µg/mL; in [14], above 50 µg/mL; in [15], above 50 µg/mL; in assay [18] it was above 50 µg/mL. The IC50 (µg/mL), single-round pseudovirus neutralization was 2.79 µg/mL in assay [16] and above 50 µg/mL in assay [19].

In assay [11], 4995_E20 (PGT-142) (antibody) registered an IC50, pseudovirus neutralization of 5.86 µg/mL. The IC50 (µg/mL), pseudovirus neutralization in [12] was 0.054 µg/mL; in assay [14], above 50 µg/mL; in assay [15], above 50 µg/mL; in [18] it was above 50 µg/mL. The IC50 (µg/mL), single-round pseudovirus neutralization is 0.015 µg/mL in assay [16] and above 50 µg/mL in assay [19].

Consider 5345_I01 (PGT-137) (antibody), for which the IC50, pseudovirus neutralization in assay [20], in [21], in [22], in assay [27], in [30] and in assay [31] was above 50 µg/mL throughout. In addition, the IC50, pseudovirus neutralization was 18.5 µg/mL in assay [32] and above 50 µg/mL in assay [34]. The IC50 (µg/mL), pseudovirus neutralization in assay [23] is above 50 µg/mL; in assay [24], above 50 µg/mL; in assay [25], above 50 µg/mL; in [26] it was above 50 µg/mL; in [28], above 50 µg/mL; in [29], 1.22 µg/mL. In addition, the IC50 (µg/mL), pseudovirus neutralization in assay [33] worked out at 6.23 µg/mL.

As for 5343_B08 (PGT-135) (antibody), the IC50, pseudovirus neutralization in assay [20] is above 50 µg/mL; in assay [21], 41.9 µg/mL; in assay [22] it was above 50 µg/mL; in assay [27] it was above 50 µg/mL; in assay [30], above 50 µg/mL; in assay [31], above 50 µg/mL. The IC50, pseudovirus neutralization was 0.063 µg/mL in [32] and above 50 µg/mL in assay [34]. The substance also registered a Fold IC50 increase relative to wild-type (pseudovirus neutralization) in assay [1] of 0.3 fold. In addition, the IC50 (µg/mL), pseudovirus neutralization in assay [23] was above 50 µg/mL; in assay [24], above 50 µg/mL; in assay [25], above 50 µg/mL; in assay [26], 0.088 µg/mL; in assay [28], above 50 µg/mL; in assay [29], 0.429 µg/mL. The substance further had an IC50 (µg/mL), pseudovirus neutralization in assay [33] of 0.964 µg/mL.

In the case of 5329_C19 (PGT-136) (antibody), the IC50, pseudovirus neutralization in [20], in assay [21], in [22], in [27], in assay [30] and in [31] was above 50 µg/mL each time. In addition, the IC50, pseudovirus neutralization in assay [32] and in [34] was above 50 µg/mL in each case. In addition, the IC50 (µg/mL), pseudovirus neutralization in assay [23] was above 50 µg/mL; in [24], above 50 µg/mL; in assay [25], above 50 µg/mL; in assay [26], above 50 µg/mL; in assay [28], above 50 µg/mL; in [29], 0.406 µg/mL. The same substance had an IC50 (µg/mL), pseudovirus neutralization in [33] of 2.42 µg/mL.

Consider 4993_K13 (PGT-141) (antibody), for which the IC50, pseudovirus neutralization in assay [11] was above 50 µg/mL. The IC50 (µg/mL), pseudovirus neutralization in [12] is 0.051 µg/mL; in [14], above 50 µg/mL; in assay [15] it was above 50 µg/mL; in [18], above 50 µg/mL. Further, the values for the IC50 (µg/mL), single-round pseudovirus neutralization in assay [16] and in assay [19] were 0.022 µg/mL and above 50 µg/mL, respectively.

In the case of 5141_B17 (PGT-126) (antibody), the Fold IC50 increase relative to wild-type (pseudovirus neutralization) in assay [1] was found to be 0.7 fold. For the same substance, the IC50 (µg/mL), pseudovirus neutralization in assay [2] and in assay [5] was above 50 µg/mL throughout. For the same substance, the IC50, pseudovirus neutralization in assay [3] was above 50 µg/mL; in [4], 0.01 µg/mL; in [6], 0.025 µg/mL; in assay [8] it was 0.048 µg/mL; in assay [9] it was 0.0194 µg/mL; in [10], 0.0091 µg/mL. In assay [7], this substance showed a Fold IC50 increase relative to wild-type of 0.4 fold.

Take 4995_P16 (PGT-145) (antibody): the IC50, pseudovirus neutralization in assay [11] was found to be 0.032 µg/mL. Moreover, the IC50 (µg/mL), pseudovirus neutralization in assay [12] was 0.06 µg/mL; in assay [14] it was above 50 µg/mL; in assay [15] it was above 50 µg/mL; in [18], above 50 µg/mL. Besides, the IC50 (µg/mL), single-round pseudovirus neutralization was 0.028 µg/mL in assay [16] and above 50 µg/mL in assay [19].

As to 4980_N08 (PGT-143) (antibody), in assay [11], the IC50, pseudovirus neutralization is 17.3 µg/mL. For the same substance, the IC50 (µg/mL), pseudovirus neutralization was 0.048 µg/mL in assay [12], above 50 µg/mL in assay [14], above 50 µg/mL in assay [15] and above 50 µg/mL in [18]. The IC50 (µg/mL), single-round pseudovirus neutralization in assay [16] was 0.019 µg/mL; in assay [19] it was above 50 µg/mL.

The values above are taken from US20240132578A1.
